# Source: patent publication US20190016816A1 (APTEVO RESEARCH AND DEVELOPMENT, published 2019)
# T1: human 5T4 on cells (human, UniProt Q13641 32-420)
# T1 sequence: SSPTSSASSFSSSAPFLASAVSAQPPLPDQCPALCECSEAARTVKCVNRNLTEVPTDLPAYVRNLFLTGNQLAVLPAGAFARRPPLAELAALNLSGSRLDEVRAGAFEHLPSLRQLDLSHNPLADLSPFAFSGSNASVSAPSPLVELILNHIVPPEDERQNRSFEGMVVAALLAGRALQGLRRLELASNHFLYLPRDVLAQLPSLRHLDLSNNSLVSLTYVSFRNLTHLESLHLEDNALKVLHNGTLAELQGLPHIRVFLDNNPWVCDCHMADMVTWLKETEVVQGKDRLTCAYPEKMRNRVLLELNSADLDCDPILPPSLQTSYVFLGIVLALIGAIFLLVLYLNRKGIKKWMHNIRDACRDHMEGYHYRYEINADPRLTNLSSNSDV
# Columns and labels:
# human 5T4 on cells [1] = target: T1, human 5T4 on cells; test: cell-based or functional assay
# human 5T4 on cells [2] = target: T1, human 5T4 on cells; test: flow cytometry, H1975 cells, PE goat anti-human Fc
# Experimental: A 3-fold titration of ALG.APV-210 construct (ranging from 100 nM to 0.14 nM) was incubated with the human 5T4-expressing cell lines for 40 minutes in FACS buffer at 4° C., washed 3 times, and detected with PE-labeled, goat-anti-human Fc secondary antibody (Jackson ImmunoResearch). Binding of ALG.APV-210 was detected by flow cytometry. All samples were run in duplicates. Nonlinear regression analysis to determine EC₅₀ values was performed in GraphPad Prism 6® graphing and statistics software.
# human 5T4 on cells [3] = target: T1, human 5T4 on cells; test: flow cytometry, SKOV-3 cells, streptavidin-PE, normalized MFI of 2 pooled experiments
# Experimental: Prior to the FACS staining, all cell lines were characterized for their 5T4 expression levels using a receptor density kit (Quantum Simply Cellular, anti-human IgG, Bangs Laboratories, Inc). Adherent cell lines were cultured according to their supplier's instructions and were harvested from their cell culture flasks using Trypsin/EDTA, counted in R10 medium in a Burker chamber, and diluted in FACS buffer (PBS+0.5% BSA, 0.05% NaN₃) to a concentration of 4×10⁶ cells/mL. 50 μL (0.20×10⁶) of cell solution was added to a 96-well FACS staining plate (Falcon #351190). Cells were incubated for 20 min in 4° C. with 50 μL of the biotinylated ALG.APV-210 (2× final concentration). The antibodies were added in a serial dilution starting at 20 μg/mL titrating down in a 12 step ½ dilution down to 0.010 μg/mL. Following 2× washing with FACS buffer, cells were incubated for 30 min in 4° C. with 100 μL of a secondary antibody (streptavidin-PE, BD #554061, diluted 1/500). […] Cells were analysed for ALG.APV-210 binding using flow cytometry (FACSVerse) by gating on single cells. MFI values (secondary antibody only subtracted) from 1 out of 2 independent experiments, as well as normalized data and EC₅₀-values of pooled data from 2 experiments were determined and plotted using GraphPad Prism 7, non-linear regression log (agonist) vs. normalized response—variable slope.
# human CD137 on cells = target: T2, human CD137 on cells (human, UniProt Q07011 24-255); test: flow cytometry, CD8 T cells gated from CD3-stimulated human PBMC, biotinylated antibody + streptavidin-APC, exp 2, n=3 donors
# T2 construct: also called 4-1BB; TNFRSF9 (CHO-K1/human CD137 cells)
# Experimental: (§1) Following 48 h of incubation with or without CD3, human and cynomolgus PBMC were harvested, pooled, recounted and diluted in FACS buffer (PBS+0.5% BSA, 0.05% NaN₃) to a concentration of 5×10⁶ cells/mL. 50 μL (0.25×10⁶ cells) of cell solution was added to a 96-well FACS staining plate (Falcon #351190). Following 10 min of Fc-blocking in RT using Beriglobin (hIgG, 200 μg/mL), cells were washed in FACS buffer and then incubated for 1 h in 4° C. with 100 μL of the biotinylated ALG.APV-210 or negative control. […] Cells were analysed for ALG.APV-210 binding using flow cytometry by gating on viable, single cells expressing CD3 and CD8. MFI values (FMO subtracted) from 2 independent experiments as well as normalized pooled data from 2 experiments and EC₅₀-values were determined and plotted using GraphPad Prism 7, non-linear regression log (agonist) vs. normalized response—variable slope, n=6 donors/group.
# (§2) In ELISA tests, the binding of biotinylated ALG.APV-210 to CD137 was similar to that of the non-biotinylated ALG.APV-210 (0.6 nM vs. 0.7 nM). The binding (EC₅₀) of the biotinylated ALG.APV-210 to its immunomodulatory target CD137 when expressed on activated primary human and cynomolgus CD8 T cells from CD3 stimulated PBMC was assessed and compared between the two species as well as to unstimulated cells. […]
# [4] = target: T3, cynomolgus CD137 on cells (cynomolgus macaque, UniProt A9YYE7 24-254); test: flow cytometry, CD8 T cells gated from CD3-stimulated cynomolgus PBMC, biotinylated antibody + streptavidin-APC, exp 2, n=3 donors
# T3 construct: whole, on cells; also called CHO-K1/cynomolgus CD137 cell line; cynomolgus monkey CD137 on CD3-stimulated primary CD8 T cells
# Experimental: as §1, §2
# T3 sequence (A9YYE7 entry or part of it): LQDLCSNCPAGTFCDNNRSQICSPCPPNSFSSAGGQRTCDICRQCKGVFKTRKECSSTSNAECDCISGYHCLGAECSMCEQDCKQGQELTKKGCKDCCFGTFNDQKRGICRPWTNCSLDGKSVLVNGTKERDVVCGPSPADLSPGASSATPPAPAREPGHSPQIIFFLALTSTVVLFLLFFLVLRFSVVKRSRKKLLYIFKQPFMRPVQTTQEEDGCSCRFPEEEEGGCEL
# T2 sequence (Q07011 24-255 limits assumed): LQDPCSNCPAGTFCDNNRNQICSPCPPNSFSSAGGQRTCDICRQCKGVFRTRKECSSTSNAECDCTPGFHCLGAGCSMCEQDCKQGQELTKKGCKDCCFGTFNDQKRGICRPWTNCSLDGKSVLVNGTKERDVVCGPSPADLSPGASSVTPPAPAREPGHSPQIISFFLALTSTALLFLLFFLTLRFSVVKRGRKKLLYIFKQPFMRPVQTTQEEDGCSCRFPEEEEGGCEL
binder,measurement,setting,value
"ALG.APV-210 (bispecific antibody, Optimized ADAPTIR scFv-Fc-scFv homodimer with stabilizing disulfide in the 1210 scFv; also called 5T4-CD137 bispecific antibody) EVQLLESGGGLVQPGGSLRLSCAASGFTFSHGSMYWVRQAPGKGLEWVSSISSGSGSTYYADSVKGRFTISHDNSKNTLYLQMNSLRAEDTAVYYCARSSYYGSYYSIDYWGQGTLVTVSSGGGGSGGGGSGGGGSGGGGSDIQMTQSPSSLSASVGDRVTITCRASQSISSYLNWYQQKPGKAPKLLIYAASSLQSGVPSRFSGSGSGTDFTLTISSLQPEDFATYYCQQYYDNLPTFGQGTKLEIKEPKSSDKTHTCPPCPAPEAAGAPSVFLFPPKPKDTLMISRTPEVTCVVVDVSHEDPEVKFNWYVDGVEVHNAKTKPREEQYNSTYRVVSVLTVLHQDWLNGKEYKCAVSNKALPAPIEKTISKAKGQPREPQVYTLPPSRDELTKNQVSLTCLVKGFYPSDIAVEWESNGQPENNYKTTPPVLDSDGSFFLYSKLTVDKSRWQQGNVFSCSVMHEALHNHYTQKSLSLSPGSGGGGSGGGGSGGGGSPSEVQLLESGGGLVQPGGSLRLSCAASGFTFSSYAMSWVRQAPGKCLEWVSAISGSGGSTYYADSVKGRFTISRDNSKNTLYLQMNSLRAEDTAVYYCARYYGGYYSAWMDYWGQGTLVTVSSGGGGSGGGGSGGGGSGGGGSDIQMTQSPSSLSASVGDRVTITCRASQSISSFLNWYQQKPGKAPKLLIYAASSLQSGVPSRFSGSGSGTDFTLTISSLQPEDSATYYCQQTYGYLHTFGCGTKLEIKR",maximal IFNγ release with CT26-h5T4^low cells relative to CT26-h5T4^high cells,human 5T4 on cells [1],82%
same,maximal IFNγ release with CT26-wt cells (no 5T4) relative to CT26-h5T4^high cells,human 5T4 on cells [1],7%
same,EC50,human 5T4 on cells [2],20 nM
"biotinylated ALG.APV-210 (bispecific antibody, also called ALG.APV-210 (biotinylated for FACS detection)) EVQLLESGGGLVQPGGSLRLSCAASGFTFSHGSMYWVRQAPGKGLEWVSSISSGSGSTYYADSVKGRFTISHDNSKNTLYLQMNSLRAEDTAVYYCARSSYYGSYYSIDYWGQGTLVTVSSGGGGSGGGGSGGGGSGGGGSDIQMTQSPSSLSASVGDRVTITCRASQSISSYLNWYQQKPGKAPKLLIYAASSLQSGVPSRFSGSGSGTDFTLTISSLQPEDFATYYCQQYYDNLPTFGQGTKLEIKEPKSSDKTHTCPPCPAPEAAGAPSVFLFPPKPKDTLMISRTPEVTCVVVDVSHEDPEVKFNWYVDGVEVHNAKTKPREEQYNSTYRVVSVLTVLHQDWLNGKEYKCAVSNKALPAPIEKTISKAKGQPREPQVYTLPPSRDELTKNQVSLTCLVKGFYPSDIAVEWESNGQPENNYKTTPPVLDSDGSFFLYSKLTVDKSRWQQGNVFSCSVMHEALHNHYTQKSLSLSPGSGGGGSGGGGSGGGGSPSEVQLLESGGGLVQPGGSLRLSCAASGFTFSSYAMSWVRQAPGKCLEWVSAISGSGGSTYYADSVKGRFTISRDNSKNTLYLQMNSLRAEDTAVYYCARYYGGYYSAWMDYWGQGTLVTVSSGGGGSGGGGSGGGGSGGGGSDIQMTQSPSSLSASVGDRVTITCRASQSISSFLNWYQQKPGKAPKLLIYAASSLQSGVPSRFSGSGSGTDFTLTISSLQPEDSATYYCQQTYGYLHTFGCGTKLEIKR",EC50,human 5T4 on cells [3],15 nM
same,EC50 (read off the curve),human CD137 on cells,~0.2 nM
same,EC50 (read off the curve),[4],~0.2 nM
